Reference: article PMC11122685, “An interaction network in the polymerase active site is a prerequisite for Watson-Crick base pairing in Pol γ”

Target: Pol gamma A R853A exo-;Pol gamma B deltaI4 (human;human?, UniProt P54098;Q9UHN1 1-1239;1-485, D198A;E200A;R853A|del136-182)
Experiment: X-ray crystal structure (3.4 A); dCTP (2 mM), 10 mM CaCl2; ternary complex, dCTP not paired with template dG; Crystal: 63.5 uM protein, 114.3 uM DNA, 10 mM CaCl2, 2 mM dCTP; well 100 mM MES pH 6.0, 150 mM NaCl, 10 mM CaCl2, 50 mM BME, 3% PEG-8000, 1-8% sucrose, 2% Jeffa
Settings: protein: recombinant;recombinant; (Ni-NTA purified); copies: 1;2; 5' overhang 4 nt (template strand), recessed primer 3' end

Pol gamma A R853A exo-;Pol gamma B deltaI4, sequence (P54098 whole entry D198A/E200A/R853A, chain 1 of 2): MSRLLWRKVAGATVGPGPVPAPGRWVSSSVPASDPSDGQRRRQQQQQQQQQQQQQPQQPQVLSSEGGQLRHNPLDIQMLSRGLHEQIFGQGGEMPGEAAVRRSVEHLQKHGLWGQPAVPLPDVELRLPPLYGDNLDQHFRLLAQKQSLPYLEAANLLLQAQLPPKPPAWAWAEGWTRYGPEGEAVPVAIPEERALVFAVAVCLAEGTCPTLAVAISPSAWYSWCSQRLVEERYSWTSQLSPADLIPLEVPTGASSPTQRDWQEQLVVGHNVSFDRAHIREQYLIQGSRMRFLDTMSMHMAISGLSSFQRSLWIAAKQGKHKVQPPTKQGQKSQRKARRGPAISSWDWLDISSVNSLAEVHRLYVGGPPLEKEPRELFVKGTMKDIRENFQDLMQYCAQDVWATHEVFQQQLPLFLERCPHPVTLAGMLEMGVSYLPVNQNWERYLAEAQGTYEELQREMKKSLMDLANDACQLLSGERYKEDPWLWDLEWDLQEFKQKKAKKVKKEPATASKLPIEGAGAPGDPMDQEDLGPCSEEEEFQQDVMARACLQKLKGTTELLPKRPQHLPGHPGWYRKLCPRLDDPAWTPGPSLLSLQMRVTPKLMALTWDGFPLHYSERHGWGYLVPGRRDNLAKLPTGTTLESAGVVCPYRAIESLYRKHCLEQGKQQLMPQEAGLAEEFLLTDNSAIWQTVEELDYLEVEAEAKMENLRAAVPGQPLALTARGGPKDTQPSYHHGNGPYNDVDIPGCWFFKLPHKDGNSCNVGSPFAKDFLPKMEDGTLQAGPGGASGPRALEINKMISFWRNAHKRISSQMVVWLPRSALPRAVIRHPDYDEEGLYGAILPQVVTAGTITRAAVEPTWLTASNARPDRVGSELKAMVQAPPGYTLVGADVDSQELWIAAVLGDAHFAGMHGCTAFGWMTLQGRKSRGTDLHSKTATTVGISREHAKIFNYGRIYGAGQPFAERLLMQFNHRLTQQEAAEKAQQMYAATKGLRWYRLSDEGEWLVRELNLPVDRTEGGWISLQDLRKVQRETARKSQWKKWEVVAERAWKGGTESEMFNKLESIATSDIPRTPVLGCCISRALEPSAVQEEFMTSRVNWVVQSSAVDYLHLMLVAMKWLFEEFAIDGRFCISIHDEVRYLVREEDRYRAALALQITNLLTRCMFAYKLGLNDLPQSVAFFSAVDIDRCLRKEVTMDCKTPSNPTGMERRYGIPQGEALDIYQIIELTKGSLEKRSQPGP
Pol gamma A R853A exo-;Pol gamma B deltaI4, sequence (Q9UHN1 other isoform, or with tags, fused parts or gaps D198A;E200A;R853A|del136-182 | R853A R853A, chain 2 of 2): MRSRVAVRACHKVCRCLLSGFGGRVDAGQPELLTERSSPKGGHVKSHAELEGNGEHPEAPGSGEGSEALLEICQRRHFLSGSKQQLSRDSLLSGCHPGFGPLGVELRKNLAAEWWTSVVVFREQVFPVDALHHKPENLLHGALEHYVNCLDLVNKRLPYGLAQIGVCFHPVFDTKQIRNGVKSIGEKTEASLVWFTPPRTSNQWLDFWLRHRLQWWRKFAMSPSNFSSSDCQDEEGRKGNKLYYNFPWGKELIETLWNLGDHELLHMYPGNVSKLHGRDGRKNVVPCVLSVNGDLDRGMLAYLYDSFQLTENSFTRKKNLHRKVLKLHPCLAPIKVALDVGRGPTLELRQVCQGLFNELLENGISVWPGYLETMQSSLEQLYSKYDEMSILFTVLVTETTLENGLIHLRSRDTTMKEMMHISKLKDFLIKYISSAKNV

B1: 24-nt/28-nt primer/template, ddC-terminated primer (crystal) (dsDNA)
DNA 1: CGAAAACGACGGCCAGTGCCATAC
DNA 2: CGAGGTATGGCACTGGCCGTCGTTTTCG
modifications: 2',3'-dideoxyC at primer 3' end (position 24 of strand 1)
- binding result: binds
